Test results reported in patent publication US11718646B2, “Bovine adrenal medulla peptide 8-22 compounds and methods of use thereof for treating pain” (Tufts Medical Center, priority 2015, dated 2023).
No end group written: not given here.

Tests used:
wild type MrgprX1 = target: T1, wild type MrgprX1 (Homo sapiens, UniProt Q96LB2); experiment: SRE-luciferase reporter gene assay in transfected HEK293 cells, wild type receptor; assay type: cell-based
T1 construct: expressed in transfected cells; host or cells: HEK293
Description: A luciferase reporter-based assay was utilized as an index of receptor-mediated signaling (as in Doyle et al., 2013). Human kidney cells (HEK293), grown in Dulbecco's modified Eagle's medium (DMEM) containing 10% FBS, 100 U/ml penicillin, and 100 μg/ml streptomycin were seeded in 96-well plates and grown to 80% confluence. Using polyethylenimine (PEI, 2.0 μg/mL in serum-free DMEM), cells were transiently transfected with cDNAs encoding (a) wild type or variant MrgprX1 (3 ng/well); (b) an SRE-luciferase PEST construct (SRE5×-Luc-PEST), which includes five SRE repeats, a luciferase reporter gene, and the protein degradation sequence hPEST (Promega, catalog #E1340) (25 ng/well); and (c) a CMV-β-galactosidase construct as a control for variability in transfection efficiency (10 ng/well). In experiments that included transfection of an MTL-encoding construct, the corresponding cDNA was added to the transfection mix, at 4 ng/well or as indicated.
(§1) Twenty-four hours following transfection, cells were stimulated with soluble ligand for 4 hours (if applicable). After addition of SteadyLite reagent (PerkinElmer, Chicago, Ill.), luciferase activity of the lysate was measured using a TopCount NTX plate reader. Subsequently, 2-nitrophenyl β-D-galactopyranoside (ONPG) was added as a colorimetric substrate to enable quantification of β-galactosidase levels. After incubation with ONPG for 30 minutes, absorbance at 420 nm was measured using a SpectraMax microplate reader (Molecular Devices). Luciferase activity was normalized using the β-galactosidase activity data. Three independent experiments were performed, each with three technical replicates. Data were graphed and statistically analyzed using Graphpad Prism software.
GraphPad Prism software version 6.0 (GraphPad Software Inc., La Jolla, Calif.) was used for sigmoidal curve fitting of ligand concentration—response curves, linear regression, and statistical analysis. EC50 and pEC50 values were calculated for each independent experiment as an index of ligand potency. Reported values represent the mean of three independent experiments. Statistical comparisons were made by one-way analysis of variance with Dunnett's multiple comparisons test.
As additional tools for structure-function studies, MTLs incorporating one of two endogenous peptide ligands for MrgprX1, BAMS-22 and γ2-MSH, were generated. The activities of MTL constructs in both orientations (type I, with an extracellular N terminus of the ligand; type II, with an extracellular C terminus) were assessed using a luciferase-based reporter assay as described herein. […] Luciferase activity was quantified and normalized relative to β-galactosidase expression. […]

MrgprX1 R131S variant = target: T2, MrgprX1 R131S variant (Homo sapiens, UniProt Q96LB2, R131S); experiment: SRE-luciferase reporter gene assay in transfected HEK293 cells, R131S variant; assay type: cell-based
T2 construct: expressed in transfected cells; host or cells: HEK293
Description: (§2) A luciferase reporter-based assay was utilized as an index of receptor-mediated signaling (as in Doyle et al., 2013). Human kidney cells (HEK293), grown in Dulbecco's modified Eagle's medium (DMEM) containing 10% FBS, 100 U/ml penicillin, and 100 μg/ml streptomycin were seeded in 96-well plates and grown to 80% confluence. […]
as §1, with “Luciferase activity was normalized using the β-galactosidase activity data. Three independent experiments were performed, each with three technical replicates.” left out
(§3) GraphPad Prism software version 6.0 (GraphPad Software Inc., La Jolla, Calif.) was used for sigmoidal curve fitting of ligand concentration—response curves, linear regression, and statistical analysis. EC50 and pEC50 values were calculated for each independent experiment as an index of ligand potency. […]
Signaling of MrgprX1 following stimulation with the endogenous peptide ligand BAM8-22 was measured using a luciferase reporter assay as described herein. […]

[1] = test system: spinal nerve ligation neuropathic pain; conditions: intrathecal; rats; cited from earlier work
MrgprX1 R55L variant = target: T3, MrgprX1 R55L variant (Homo sapiens, UniProt Q96LB2, R55L); experiment: SRE-luciferase reporter gene assay in transfected HEK293 cells, R55L variant; assay type: cell-based; conditions: significant only with tethered γ2-MSH
T3 construct: expressed in transfected cells; host or cells: HEK293
Description: as §2
as §1, with “Luciferase activity was normalized using the β-galactosidase activity data. Three independent experiments were performed, each with three technical replicates.” left out
as §3
(§4) The activity of tethered and lipidated BAMS-22 at each of the seven MrgprX1 variants was assessed (FIGS. 4A-4B). […]

MrgprX1 H133R variant = target: T4, MrgprX1 H133R variant (Homo sapiens, UniProt Q96LB2, H133R); experiment: SRE-luciferase reporter gene assay in transfected HEK293 cells, H133R variant; assay type: cell-based
T4 construct: expressed in transfected cells; host or cells: HEK293
Description: as §2
as §1, with “Luciferase activity was normalized using the β-galactosidase activity data. Three independent experiments were performed, each with three technical replicates.” left out
as §3, §4

MrgprX1 F273L variant = target: T5, MrgprX1 F273L variant (Homo sapiens, UniProt Q96LB2, F273L); experiment: SRE-luciferase reporter gene assay in transfected HEK293 cells, F273L variant; assay type: cell-based; conditions: significant only with tethered γ2-MSH
T5 construct: expressed in transfected cells; host or cells: HEK293
Description: as §2
as §1, with “Luciferase activity was normalized using the β-galactosidase activity data. Three independent experiments were performed, each with three technical replicates.” left out
as §3, §4

T1 sequence (Q96LB2 whole entry): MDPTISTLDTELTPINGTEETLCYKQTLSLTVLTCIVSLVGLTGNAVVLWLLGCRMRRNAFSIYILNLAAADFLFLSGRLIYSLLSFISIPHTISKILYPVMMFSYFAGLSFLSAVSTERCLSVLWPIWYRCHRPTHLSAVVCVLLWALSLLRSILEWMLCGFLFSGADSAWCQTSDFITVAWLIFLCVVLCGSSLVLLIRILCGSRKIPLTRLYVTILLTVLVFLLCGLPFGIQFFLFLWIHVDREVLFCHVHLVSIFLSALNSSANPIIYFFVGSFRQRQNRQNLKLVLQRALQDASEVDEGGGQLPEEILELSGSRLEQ
T2 sequence (Q96LB2 whole entry R131S): as the sequence (Q96LB2 whole entry) above, with R131S counted along it
T3 sequence (Q96LB2 whole entry R55L): as the sequence (Q96LB2 whole entry) above, with R55L counted along it
T5 sequence (Q96LB2 whole entry F273L): as the sequence (Q96LB2 whole entry) above, with F273L counted along it
T4 sequence (Q96LB2 whole entry H133R): as the sequence (Q96LB2 whole entry) above, with H133R counted along it

Substance	tethered ligand induced receptor activity of substituted BAM8-22 MTL (wild type MrgprX1; MTL construct in HEK293 cells)	receptor stimulation at the highest tested concentration (wild type MrgprX1; 10 μM, accurate EC50 values could not be calculated)	ligand-mediated signaling compared to wild type receptor (MrgprX1 R131S variant)	time after administration at which the effect returns to baseline [1] [min]	signaling at saturating concentration, of maximum lipidated BAM8-22 signaling (wild type MrgprX1; WT receptor, relative to lipidated BAM8-22 at 10^−7 M, mean±SEM, data not shown) [%]	MTL activation of the receptor (wild type MrgprX1; co-expressed with MrgprX1 in HEK293, increasing amounts of MTL cDNA, FIG. 3A, 3B)	ligand-mediated signaling compared to wild type receptor (MrgprX1 R55L variant)	ligand-mediated signaling compared to wild type receptor (MrgprX1 H133R variant)	ligand-mediated signaling compared to wild type receptor (MrgprX1 F273L variant)
M15A-Y17W: double substituted BAM8-22 MTL analog, M15A and Y17W (VGRPEWWADWQKRYG; left off: small tags and cut ends; large carriers)	full activity	–	–	–	–	–	–	–	–
bovine adrenal medulla peptide 8-22 (VGRPEWWMDYQKRYG) [BAM8-22, reference compound]	–	does not fully stimulate the receptors	lower levels of BAMS-22 mediated activity	90	–	–	–	–	–
tethered BAM8-22: cDNA-encoded type I membrane tethered ligand: BAM8-22 fused to a transmembrane domain via a flexible linker, free extracellular N terminus (VGRPEWWMDYQKRYG; also: fused at C-terminus via flexible linker to a transmembrane domain (type I tethered ligand))	–	–	negligible signaling levels	–	38.4±5.4	Active	moderate decrease in signaling	not observed	moderate decrease in signaling
